33 molecules from patent publication US20070265189A1 (published 2007) can be followed below.

Sequences and labels used below:
B1: 20E2A-3-C7-IGFR (peptide)
peptide: VGTVAGFYDAIAQLVARASRV
B2: B6Hα-3-E8-IR (peptide)
peptide: RGKTAAVIVGRPADPFYHKLSELLQGG
B3: B6Hα-2-C7-IR (peptide)
peptide: RGIVAMVEATEVGSDHDPFYHKLSELVQGS
B4: B6Hα-2-D1-IR (peptide)
peptide: GCEVIVEEGDSADPFYHKLSELCQGS
B5: 20E2B-4-H8-IGFR (peptide)
peptide: PAGPCGFYCGLGLLLHGDQSP
B6: NNRPγ-4-A9-IR (peptide)
peptide: EGSGFYGYFFSLLGLQG
B7: H2CA-4-F6-IGFR (peptide)
peptide: AVRATRFDEAFYDWFVRQISDGQGNK
B8: B6Hα-2-D6-IR (peptide)
peptide: GRTMAVMAAGGPDDPFYHKLSELVQGG
B9: 20E2B-4-G11-IGFR (peptide)
peptide: RQGTGSFYLMLEQLLVGARGP
B10: NNRPγ-4-A1-IR (peptide)
peptide: IIGGFYSYFNSVLRLGT
B11: B6L-4-D7-IR (peptide)
peptide: AETSVQVGWIRLQSVWPGEHWNTVDPFYHKLSELLRGSGA
B12: 20E2B-4-F9-IGFR (peptide)
peptide: QPDHSYFYSLLQELVGSEERL
B13: 20E2B-4-H9-IGFR (peptide)
peptide: RCQGTGFYTCIQELIGFGDPD
B14: H2CA-4-F11-IGFR (peptide)
peptide: SAAQLFFQESFYDWFLRQVAESSQPN
B15: 20C-3-A4-IGFR (peptide)
peptide: QFYGCLLDLSLGVPSFGWRRRCITA
B16: NNRPγ-4-A7-IR (peptide)
peptide: RFDPFYSYFVNLLGASA
B17: B6Hα-2-C10-IR (peptide)
peptide: SGAKVIVVTGDSGDPFYHKLSELLQGS
B18: 20E2B-3-D12-IGFR (peptide)
peptide: QGNVLDFYGWIGRLLAKQGSD
B19: B6Hα-4-G8-IR (peptide)
peptide: GGTKAVAKVGTRDDPFYHKLSELLQGS
B20: 20C-3-E4-IGFR (peptide)
peptide: FFYRCLSRLLGGQLGSRLGLSCIGD
B21: B6Hα-3-F10-IR (peptide)
peptide: GCVVEWQKWHGASDPFYHKLSELGGCS
B22: 20E2A-3-D10-IGFR (peptide)
peptide: MMVVDGFYDALHQLVVAQSLG
B23: 20E2B-1-A8-IGFR (peptide)
peptide: TLRSPTFYDWLEMVLTHGQGG
B24: 20E2B-2-B3-IGFR (peptide)
peptide: ICTGQGFYQVLCGLLRGTSAR
B25: 20E2B-3-E12-IGFR (peptide)
peptide: VATSQGFYSGLSELLQGGGNV
B26: B6Hα-3-E7-IR (peptide)
peptide: GCAVVEEAERSRGDPFYHKLSELIQGC
B27: 20E2B-2-B8-IGFR (peptide)
peptide: IWATGDFYRLLSQLVMGRVGT
B28: 20E2B-3-C4-IGFR (peptide)
peptide: ASSASGFYELLQRLAGLGLEV
B29: 20E2B-2-B7-IGFR (peptide)
peptide: LSSDGQFYRALNLLLQGSAGR
B30: H2CA-4-F10-IGFR (peptide)
peptide: VNQSGSIHENFYDWFERQVSHQRGVR
B31: 20E2B-3-D11-IGFR (peptide)
peptide: LGVTDGFYAALGYLIHGVGQF
B32: 20E2B-3-D6-IGFR (peptide)
peptide: DSVGDNFYQLLESLVGGHGVG
B33: 20E2A-3-A12-IGFR (peptide)
peptide: LSVALSFYDALGQLVAGEGRW

The target in one experiment is T1, soluble human insulin receptor-immunoglobulin heavy chain chimera (sIR-Fc; Bass et al., 1996) (human, UniProt P06213 28-956, limits assumed).
T1 construct: extracellular domain; also called soluble IR (Bass construct); not shown: immunoglobulin heavy chain constant domains
Briefly: phage ELISA.
As to B1, the IR/IGF-1R comparison amounted to 0.2 and the “Ratio over Background” value is 1.1.

As for B2, the IR/IGF-1R comparison was 0.2 and the “Ratio over Background” value was determined as 1.1.

In the case of B3, the IR/IGF-1R comparison was 0.1 and the “Ratio over Background” value was 1.

On to B4, for which the IR/IGF-1R comparison came out at 0.2 and the “Ratio over Background” value worked out at 1.3.

For B5, the IR/IGF-1R comparison worked out at 0.2 and the “Ratio over Background” value worked out at 0.9.

Take B6: the IR/IGF-1R comparison is 0.1 and the “Ratio over Background” value stood at 1.4.

For B7, the IR/IGF-1R comparison amounted to 0.2 and the “Ratio over Background” value worked out at 1.1.

On to B8, for which the IR/IGF-1R comparison turned out to be 0.2 and the “Ratio over Background” value is 1.

For B9, the IR/IGF-1R comparison was 0.1 and the “Ratio over Background” value amounted to 0.6.

As to B10, the IR/IGF-1R comparison was 0.2 and the “Ratio over Background” value amounted to 1.8.

B11: the IR/IGF-1R comparison is 0.3 and the “Ratio over Background” value amounted to 1.4.

In the case of B12, the IR/IGF-1R comparison was found to be 0.1 and the “Ratio over Background” value is 1.9.

Regarding B13, the IR/IGF-1R comparison amounted to 0.2 and the “Ratio over Background” value is 0.9.

On to B14, for which the IR/IGF-1R comparison was 0.1 and the “Ratio over Background” value was 1.

In the case of B15, the IR/IGF-1R comparison was determined as 0.1 and the “Ratio over Background” value amounted to 1.2.

Turning to B16, the IR/IGF-1R comparison worked out at 0.2 and the “Ratio over Background” value was found to be 1.3.

As to B17, the IR/IGF-1R comparison was determined as 0.2 and the “Ratio over Background” value turned out to be 1.1.

B18: the IR/IGF-1R comparison came out at 0.1 and the “Ratio over Background” value was found to be 0.9.

B19: the IR/IGF-1R comparison stood at 0.3 and the “Ratio over Background” value stood at 1.7.

As to B20, the IR/IGF-1R comparison worked out at 0.2 and the “Ratio over Background” value turned out to be 1.3.

As for B21, the IR/IGF-1R comparison is 0.2 and the “Ratio over Background” value amounted to 1.9.

As to B22, the IR/IGF-1R comparison amounted to 0.3 and the “Ratio over Background” value came to 1.8.

Regarding B23, the IR/IGF-1R comparison came out at 0.2 and the “Ratio over Background” value came to 0.9.

Turning to B24, the IR/IGF-1R comparison came out at 0.1 and the “Ratio over Background” value worked out at 0.7.

With B25, the IR/IGF-1R comparison is 0.1 and the “Ratio over Background” value came to 0.8.

For the molecule B26, the IR/IGF-1R comparison was 0.2 and the “Ratio over Background” value is 1.3.

As to B27, the IR/IGF-1R comparison is 0.1 and the “Ratio over Background” value was 0.8.

With B28, the IR/IGF-1R comparison is 0.2 and the “Ratio over Background” value came out at 3.3.

Regarding B29, the IR/IGF-1R comparison amounted to 0.1 and the “Ratio over Background” value came out at 0.9.

For the molecule B30, the IR/IGF-1R comparison is 0.2 and the “Ratio over Background” value was 1.

On to B31, for which the IR/IGF-1R comparison is 0.1 and the “Ratio over Background” value amounted to 1.6.

Regarding B32, the IR/IGF-1R comparison was found to be 0.1 and the “Ratio over Background” value came to 2.6.

B33: the IR/IGF-1R comparison was determined as 0.3 and the “Ratio over Background” value is 1.1.

In the next experiment the target is T2, Soluble IGF-1R (sIGF-1R), R&D Systems Cat. # 391-GR/CF (UniProt P08069 31-935, limits assumed).
T2 construct: extracellular domain
Description: phage ELISA.
As to B1, the IGF-1R/IR comparison came out at 5.1 and the “Ratio over Background” value was 5.4.

For B2, the IGF-1R/IR comparison was 4.8 and the “Ratio over Background” value was 5.3.

In the case of B3, the IGF-1R/IR comparison was 6.7 and the “Ratio over Background” value was determined as 6.7.

On to B4, for which the IGF-1R/IR comparison was determined as 4.2 and the “Ratio over Background” value was 5.4.

B5: the IGF-1R/IR comparison stood at 5.9 and the “Ratio over Background” value was 5.3.

On to B6, for which the IGF-1R/IR comparison was found to be 7.1 and the “Ratio over Background” value stood at 10.

On to B7, for which the IGF-1R/IR comparison was 6.4 and the “Ratio over Background” value was 7.3.

Regarding B8, the IGF-1R/IR comparison is 4.4 and the “Ratio over Background” value was 4.4.

B9: the IGF-1R/IR comparison came to 7 and the “Ratio over Background” value worked out at 4.5.

In the case of B10, the IGF-1R/IR comparison came out at 6 and the “Ratio over Background” value was determined as 10.9.

On to B11, for which the IGF-1R/IR comparison amounted to 3.4 and the “Ratio over Background” value stood at 4.8.

On to B12, for which the IGF-1R/IR comparison was found to be 7.7 and the “Ratio over Background” value is 14.7.

Consider B13, for which the IGF-1R/IR comparison was 5.6 and the “Ratio over Background” value worked out at 5.2.

B14: the IGF-1R/IR comparison was determined as 6.7 and the “Ratio over Background” value was 6.8.

With B15, the IGF-1R/IR comparison amounted to 7.6 and the “Ratio over Background” value was 8.8.

As to B16, the IGF-1R/IR comparison came to 4.9 and the “Ratio over Background” value is 6.3.

For the molecule B17, the IGF-1R/IR comparison came to 5.3 and the “Ratio over Background” value was 5.8.

B18: the IGF-1R/IR comparison stood at 7.3 and the “Ratio over Background” value amounted to 6.2.

Take B19: the IGF-1R/IR comparison came to 3.6 and the “Ratio over Background” value worked out at 6.1.

For B20, the IGF-1R/IR comparison was 6 and the “Ratio over Background” value was determined as 7.7.

With B21, the IGF-1R/IR comparison is 4.6 and the “Ratio over Background” value was found to be 8.8.

On to B22, for which the IGF-1R/IR comparison turned out to be 3.9 and the “Ratio over Background” value amounted to 6.9.

Take B23: the IGF-1R/IR comparison amounted to 5 and the “Ratio over Background” value worked out at 4.4.

For B24, the IGF-1R/IR comparison is 7.4 and the “Ratio over Background” value was 5.3.

Turning to B25, the IGF-1R/IR comparison is 7.3 and the “Ratio over Background” value was 6.

Regarding B26, the IGF-1R/IR comparison came to 4.3 and the “Ratio over Background” value is 5.6.

Consider B27, for which the IGF-1R/IR comparison was found to be 7.2 and the “Ratio over Background” value came to 5.7.

With B28, the IGF-1R/IR comparison amounted to 6.2 and the “Ratio over Background” value was 20.4.

Turning to B29, the IGF-1R/IR comparison stood at 6.7 and the “Ratio over Background” value worked out at 6.1.

Consider B30, for which the IGF-1R/IR comparison was 5.9 and the “Ratio over Background” value stood at 5.7.

B31: the IGF-1R/IR comparison is 7.6 and the “Ratio over Background” value is 12.2.

For B32, the IGF-1R/IR comparison was found to be 6.9 and the “Ratio over Background” value worked out at 17.8.

Take B33: the IGF-1R/IR comparison was 3.9 and the “Ratio over Background” value was 4.3.
